Test results published in US9202600B2, “Method for production of radioisotope preparations and their use in life science, research, medical application and industry” (priority 2005, dated 2015).
“Also recorded” adds a separate entry of the source.

Key:
[1] = molecular target: T1, CD20 (Homo sapiens, UniProt P11836); experiment: Cell binding of the labeled antibody; assay type: cell-based; conditions: without extrapolation to infinite antigen excess
T1 construct: endogenous in cells
T1 sequence (P11836 1-297): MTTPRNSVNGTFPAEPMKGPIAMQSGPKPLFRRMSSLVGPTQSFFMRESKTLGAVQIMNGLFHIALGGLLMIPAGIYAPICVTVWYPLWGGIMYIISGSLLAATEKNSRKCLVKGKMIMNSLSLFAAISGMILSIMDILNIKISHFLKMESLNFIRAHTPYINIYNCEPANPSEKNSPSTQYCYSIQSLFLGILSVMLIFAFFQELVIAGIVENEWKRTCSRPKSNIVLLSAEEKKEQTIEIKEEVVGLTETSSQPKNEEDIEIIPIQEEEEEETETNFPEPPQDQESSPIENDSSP
Method: 25-40 μl of the ^149Tb solution characterized above was used immediately for the labeling procedure. The pH was adjusted to 5.5 by adding 60 μl of 3 M CH3COONH4 solution, followed by the addition of 10 μl (40 mg/ml) ascorbic acid. After adding 5 μl of a stock solution of the chelated antibody in PBS (10 mg/ml) the mixture was incubated for 10 min at room temperature, before dilution to a final volume of 1.0 ml in PBS-1% human serum. […] The injection of the radioimmuno-conjugate into the mice was performed 1 h after EOS. The in vitro behavior of the labeled bioconjugate (immunoreactivity, cell binding, cell killing efficiency) has been described in a previous paper [Vranjes S D, Miederer M, Comor J J, Soloviev D, Beyer G-J and the ISOLDE collaboartion. Labeling of monoclonal antibodies with 149-Th for targeted alpha therapy. J Lab Comp Radiopharm 2001; 44:718-720]. With the same antibody the inventors observed up to 55% cell binding without extrapolation to infinite antigen excess.

[2] = Biodistribution of 149Tb-labeled Rituximab and retention of long-lived daughter radioactivity (gamma spectroscopy of organs); assay type: in vivo, SCID mice; conditions: for Biodistribution, Liver: SCID mouse, 2 h p.i. (i.v.)
Method: (§1) The in vivo studies were performed using 26 female SCID mice (C.B.-17/ICR, Iffa Credo) under the authorization Nr: GE 31.1.1049/1879/11. The mice, which were 8 weeks old at the start of the experiment and weighed 20 g on average, were kept in sterile, ventilated boxes. […] Each mouse received 5-10^6 Daudi cells by injection of 0.2 ml cell suspension in PBS into the tail vein. […] According to the authorized protocol the mice were surveyed for 120 days: their behavior was logged each day, their condition was supervised once a week by a veterinarian, and they were weighed three times a week. At the appearance of obvious signs of paralysis, visible tumor masses, or a weight loss of >15%, the mice were sacrificed. One mouse was sacrificed shortly after injection (2 h p.i.) and kept deep-frozen for later analysis, in order to act as a reference for later quantification of the daughter radioactivity distribution.
Organ samples were taken from the sacrificed mice and the radioactivity concentration of the long-lived daughter products was determined by using high-resolution gamma spectroscopy (18% HP—Ge detector in combination with the Gamma spectrometer Genie 2000, Canberra). Whole, intact mice, as well as isolated organ samples were measured. Since the radioactivity content of the samples was essentially very low, long measuring times (between 1 and 24 hours) were applied.

[3] = Daughter nuclide ingrowth and shelf-life of the 149Tb-labeled bioconjugate; assay type: physicochemical; conditions: for increase of the long-lived daughter content, factor: fixed dose applied 4 hours after the final purification of the isotope (EOS)
Method: Spallation reaction in combination with on line mass separator technology was used for the production of ^149Tb for this study. The radiochemical separation and purification of the […] was relatively easy to perform in about 30 minutes in this specific case, since the inventors started from non-carrier added preparations. The final ^149Tb preparation was obtained in very high purity and in a small volume, the labeling of the bioconjugate was fast (10 minutes) and almost quantitative. The administration of the preparation should be carried out as rapidly as possible after purification of the ^149Tb, since levels of contamination with daughter nuclides will increase with time. For example, application of a fixed dose of the ^149Tb-labeled bioconjugate 4 hours after the final purification of the isotope itself (EOS) leads to an increase of the long-lived daughter content by a factor of 2. According to the preliminary dose estimation one could define a shelf-life for the labelled ^149Tb-labeled bioconjugate of about 4-6 hours. For a longer delay it would be advisable to repurify the ^149Tb from the accumulated daughter products, a process that could be expected to require 30 minutes.

[4] = system: Daudi cells; experiment: Survival of SCID mice i.v. xenografted with Daudi cells (leukemia model) after immunotherapy or radioimmunotherapy; assay type: in vivo; conditions: for protection / disease status over 120 days observation: 5.5 MBq 149Tb-labeled Rituximab (5 μg), single i.v. injection
Method: Daudi cells (ATCC Nr. CCL-213) were used to simulate a leukemia model in mice. The cells were cultured in RPMI 1640 medium supplemented with 10% heat-inactivated fetal calf serum and 0.5% penicillin (10000 U/ml)/streptomycin (10 mg/ml) (Sigma-Aldrich). The cell suspension to be injected into mice was prepared by centrifuging the culture for 3 min at 1200 rpm, washing with PBS and re-suspending in PBS at 2.5-10^7 cells per ml.
as §1
The survival of animals until sacrifice because of disease development or the end of the experiment (no disease development) was compared between the different groups according a Kaplan Meier analysis using the Lee-Desu evaluation of the Unistat 3.0 statistical package (Megalon, Novato Calif., USA).

[5] = 2 h p.i., listed as 149Tb-CHX-A-DTPA-Rituximab
[6] = listed as 149Tb-CHX-A-DTPA-Rituximab
[7] = Group 3, 5 μg 149Tb-labeled Rituximab (5.55 MBq) i.v. 2 days after Daudi cell inoculation

In the case of ^149Tb-labeled Rituximab, the cell binding [1] was “up to 55%”, the “Biodistribution, Body total” value ([2]; 2 h p.i.) was 100 % i.d./Organ and the “Biodistribution, Bone” value ([2]; 2 h p.i.) was 9.1 ± 0.7 %/g tissue. For the same substance, the “Biodistribution, Muscles” value ([2]; 2 h p.i.) was less than 0.2 %/g tissue, the “Biodistribution, Bone” value ([2]; 2 h p.i., bone total calculated as 9 × both femur activity) was 13 ± 1 % i.d./Organ and the “Biodistribution, Kidney” value ([2]; 2 h p.i., both kidneys measured together, listed as 149Tb-CHX-A-DTPA-Rituximab) was 24 %/g tissue. The “Biodistribution, Heart” value [2, 5] was 41 %/g tissue, the “Biodistribution, Spleen” value [2, 5] was 42 %/g tissue and the “share of the retained daughter activity located in bone tissue” value ([2]; 120 days after injection) was 91.1%. The “Remaining daughter radioactivity, Blood” value ([2]; 120 d p.i.) was less than 0.01 % i.d./Organ, the “Remaining daughter radioactivity, Body total (retention of the long-lived daughter products)” value ([2]; 120 d p.i.) was 28.4 ± 4 % i.d./Organ and the “Remaining daughter radioactivity, Bone” value ([2]; 120 d p.i.) was 13 ± 2 %/g tissue. For the same substance, the “Remaining daughter radioactivity, Heart” value ([2]; 120 d p.i.) was less than 0.01 % i.d./Organ, the “Remaining daughter radioactivity, Lung” value ([2]; 120 d p.i.) was less than 0.01 % i.d./Organ and the “Remaining daughter radioactivity, Muscles” value ([2]; 120 d p.i.) was less than 0.02 % i.d./Organ. The “Remaining daughter radioactivity, Bladder” value ([2]; 120 d p.i., bladder measured with urine) was less than 0.01 % i.d./Organ, the “Remaining daughter radioactivity, Bone” value ([2]; 120 d p.i., bone total calculated as 9 × both femur activity) was 26 ± 4 % i.d./Organ and the “Remaining daughter radioactivity, Body total (retention of the long-lived daughter products)” value ([2]; 120 d p.i., listed as 149Tb-CHX-A-DTPA-Rituximab) was 28.4±4 % i.d./Organ. For the same substance, the “Remaining daughter radioactivity, Body total (retention of the long-lived daughter products)” value ([2]; 120 d p.i., listed as labeled antibody conjugate) was 28.4±4 % i.d./Organ, the “Biodistribution, Liver” value [2] was 18 ± 3 % i.d./Organ and the “Biodistribution, Liver” value [2, 6] was 18±3 % i.d./Organ. For the same substance, the “primary injected radioactive atoms excreted from the mice” value ([2]; after 120 days) was 71.6%, the shelf-life ([3]; defined according to the preliminary dose estimation) was 4 to 6 h and the “increase of the long-lived daughter content, factor” value ([3]; listed as 149Tb labeled bioconjugate) was “increase the activity of the daughter product be by a factor 2. In this way”. The “increase of the long-lived daughter content, factor” value ([3]; listed as 149Tb-labeled bioconjugate) was 2, the “time after which the only mouse of the group was lost (abdominal tumor growth)” value ([4]; 5.5 MBq 149Tb-labeled Rituximab (5 μg Rituximab per animal)) was 48 days and the “protection / disease status over 120 days observation” value [4] was “almost complete protection; also recorded: long-term survival without evidence of any disease at 120 days”. For the same substance, the “protection / disease status over 120 days observation” value [4, 6] was “without any visible signs of a disease”, the “protection / disease status over 120 days observation” value ([4]; listed as 149Tb-CHX-DTPA-Rituximab) was “almost completely protected” and the “Follow-up (120 days after the therapy): no pathologic changes” value [4, 7] was 89% no. For the same substance, the “Follow-up (120 days after the therapy): paralyzed, abdominal tumor” value [4, 7] was 11% paralyzed,, the “tumor free survival for >120 days, share of treated animals” value ([4]; SCID mice, single i.v. 5.5 MBq labeled conjugate (5 μg Rituximab) 2 days after i.v. graft of 5·10^6 Daudi cells) was 89% and the “signs of toxicity over four months” value ([4]; xenografted SCID mice treated with 149Tb-labeled Rituximab) was “without detectable signs of toxicity”.
